The values that follow are results of earlier work, collected in article PMC4372107.

As a reminder, the pKd is the Kd on a negative log10 scale, so that one unit is a factor of ten.

pKd: −log10 of the molar value. Values joined by “and” are separate entries in the source; they are usually repeats but may differ in a detail not shown here. Equal entries are not always repeated.

The target of the series is U2AF65 RRM123 (Homo sapiens) (UniProt P26368). As to the kind of experiment: ITC. A general note: ITC needs no label: the signal is the heat of the interaction.
Sequence of UniProt P26368 (P26368 148-475, one chain of several): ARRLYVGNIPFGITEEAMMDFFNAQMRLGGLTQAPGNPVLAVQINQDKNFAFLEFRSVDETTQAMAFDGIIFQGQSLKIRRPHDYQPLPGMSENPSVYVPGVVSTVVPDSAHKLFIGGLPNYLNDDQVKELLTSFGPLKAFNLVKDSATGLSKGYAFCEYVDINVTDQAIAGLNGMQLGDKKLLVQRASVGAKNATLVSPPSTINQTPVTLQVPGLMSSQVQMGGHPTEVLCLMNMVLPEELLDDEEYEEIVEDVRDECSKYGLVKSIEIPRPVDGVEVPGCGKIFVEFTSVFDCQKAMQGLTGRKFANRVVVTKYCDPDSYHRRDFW

For the substance SF1 (from UniProt Q15637), the negative logarithm of the Kd (pKd) is 6.94 and 7.02.
